Reference: IntAct's records for PubMed 21850687

Experiments:
[1] = molecular target: prdx3_human PRDX3 (UniProt P30048)
[2] = molecular target: prdx3_human PRDX3 (UniProt P30048); remark: listed apart in the source

UniProt P30048, sequence (P30048 whole entry): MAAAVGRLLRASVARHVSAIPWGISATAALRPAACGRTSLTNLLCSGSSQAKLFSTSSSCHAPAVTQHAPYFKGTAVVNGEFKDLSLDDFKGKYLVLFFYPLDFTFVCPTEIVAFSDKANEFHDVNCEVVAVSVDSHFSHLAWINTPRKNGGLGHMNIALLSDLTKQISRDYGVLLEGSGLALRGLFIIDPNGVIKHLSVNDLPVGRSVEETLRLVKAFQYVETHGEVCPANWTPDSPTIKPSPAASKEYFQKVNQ

| effect of a mutation on the interaction [1] | effect of a mutation on the interaction [2] | Substance |
| --- | --- | --- |
| disrupting interaction |  | Leucine-rich repeat serine/threonine-protein kinase 2 (Homo sapiens), Q5S007 G2019V;I2020F |
|  | increasing interaction | Leucine-rich repeat serine/threonine-protein kinase 2 (Homo sapiens), Q5S007 G2019S |
